This note sets out measurements from the FLAb antibody collection (doi:10.7554/elife.23156).

Sequences and labels used below:
B1: scFv; the commonest letter at each place (parent)
chain 1: EVKLDETGGGLVQPGRPMKLSCVASGFTFSDYWMNWVRQSPEKGLEWVAQIRNKPYNYETYYSDSVKGRFTISRDDSKSSVYLQMNNLRVEDMGIYYCTGSYYGMDYWGQGTSVTVS
chain 2: DVVMTQTPLSLPVSLGDQASISCRSSQSLVHSNGNTYLRWYLQKPGQSPKVLIYKVSNRFSGVPDRFSGSGSGTDFTLKISRVEAEDLGVYFCSQSTHVPWTFGGGTKLEIK

In the series “fluorescein” the parent is B1. Put plainly: Kd (Tite-Seq). To be noted: with fluorescein; format: scFv 4-4-20, heavy + light.
Series [1] covers variants of B1. Description: yeast surface expression (ratio to wild type); higher = more expressed. To be noted: format: scFv 4-4-20, heavy + light.

The Kd is a measure of binding affinity in units of concentration.

chain 1 EVKLDETGGGLVQPGRPMKLSCVASGFTWSDYWMNWVRQSPEKGLEWVAQIRNKPYNYETYYSDSVKGRFTISRDDSKSSVYLQMNNLRVEDMGIYYCTGSYYGMDYWGQGTSVTVS chain 2 DVVMTQTPLSLPVSLGDQASISCRSSQSLVHSNGNTYLRWYLQKPGQSPKVLIYKVSNRFSGVPDRFSGSGSGTDFTLKISRVEAEDLGVYFCSQSTHVPWTFGGGTKLEIK [chain 1 F29W]: in the series with fluorescein, the dissociation constant Kd came out at 0.0562 µM. For the same variant, the yeast surface expression in series [1] is 0.661.

chain 1 EVKLDETGGGLVQPGRPMKLSCVASGFTFSDYWMNWVRQSPEKGLEWVAQIRNKPYNYETYYSDSVKGRFTISRDDSKSSVYLQMNNLRVEDMGIYYCTGSYYGMRDWGQGTSVTVS chain 2 DVVMTQTPLSLPVSLGDQASISCRSSQSLVHSNGNTYLRWYLQKPGQSPKVLIYKVSNRFSGVPDRFSGSGSGTDFTLKISRVEAEDLGVYFCSQSTHVPWTFGGGTKLEIK [chain 1 D106R Y107D]: in the series with fluorescein, the equilibrium dissociation constant (Kd) was no less than 10 µM. Besides, in series [1], the yeast surface expression was determined as 0.462.

For chain 1 EVKLDETGGGLVQPGRPMKLSCVASGFTFSDMVMNWVRQSPEKGLEWVAQIRNKPYNYETYYSDSVKGRFTISRDDSKSSVYLQMNNLRVEDMGIYYCTGSYYGMDYWGQGTSVTVS chain 2 DVVMTQTPLSLPVSLGDQASISCRSSQSLVHSNGNTYLRWYLQKPGQSPKVLIYKVSNRFSGVPDRFSGSGSGTDFTLKISRVEAEDLGVYFCSQSTHVPWTFGGGTKLEIK [chain 1 Y32M W33V], the Kd with fluorescein was no less than 10 µM. Further, the yeast surface expression in series [1] amounted to 0.941.

With chain 1 EVKLDETGGGLVQPGRPMKLSCVASGFTFSDYWMNWVRQSPEKGLEWVAQIRNKPYNYETYYSDSVKGRFTISRDDSKSSVYLQMNNLRVEDMGIYYCTGDYYGMDYWHQGTSVTVS chain 2 DVVMTQTPLSLPVSLGDQASISCRSSQSLVHSNGNTYLRWYLQKPGQSPKVLIYKVSNRFSGVPDRFSGSGSGTDFTLKISRVEAEDLGVYFCSQSTHVPWTFGGGTKLEIK [chain 1 S101D G109H], the Kd with fluorescein was no less than 10 µM. Also, the yeast surface expression in series [1] amounted to 0.247.

Consider chain 1 EVKLDETGGGLVQPGRPMKLSCVASGFTFSDYWHNWWRQSPEKGLEWVAQIRNKPYNYETYYSDSVKGRFTISRDDSKSSVYLQMNNLRVEDMGIYYCTGSYYGMDYWGQGTSVTVS chain 2 DVVMTQTPLSLPVSLGDQASISCRSSQSLVHSNGNTYLRWYLQKPGQSPKVLIYKVSNRFSGVPDRFSGSGSGTDFTLKISRVEAEDLGVYFCSQSTHVPWTFGGGTKLEIK [chain 1 M34H V37W], for which the Kd in the series with fluorescein is no less than 10 µM. The yeast surface expression in series [1] is 0.602.

chain 1 EVKLDETGGGLVQPGRPMKLSCVASGFTFNDSWMNWVRQSPEKGLEWVAQIRNKPYNYETYYSDSVKGRFTISRDDSKSSVYLQMNNLRVEDMGIYYCTGSYYGMDYWGQGTSVTVS chain 2 DVVMTQTPLSLPVSLGDQASISCRSSQSLVHSNGNTYLRWYLQKPGQSPKVLIYKVSNRFSGVPDRFSGSGSGTDFTLKISRVEAEDLGVYFCSQSTHVPWTFGGGTKLEIK [chain 1 S30N Y32S]: the equilibrium dissociation constant (Kd) with fluorescein was 0.0146 µM. Further, in series [1], the yeast surface expression came to 1.14.

On to chain 1 EVKLDETGGGLVQPGRPMKLSCVASGFTFSDYWMNWVRQSPEKGLEWVAQIRNKPYNYETYYSDSVKGRFTISRDDSKSSVYLQMNNLRVEDMGIYYCTGSYYGMDTWCQGTSVTVS chain 2 DVVMTQTPLSLPVSLGDQASISCRSSQSLVHSNGNTYLRWYLQKPGQSPKVLIYKVSNRFSGVPDRFSGSGSGTDFTLKISRVEAEDLGVYFCSQSTHVPWTFGGGTKLEIK [chain 1 Y107T G109C], for which the dissociation constant (Kd) in the series with fluorescein was no less than 10 µM. In addition, in series [1], the yeast surface expression stood at 0.278.

Take chain 1 EVKLDETGGGLVQPGRPMKLSCVASGFTFSPWWMNWVRQSPEKGLEWVAQIRNKPYNYETYYSDSVKGRFTISRDDSKSSVYLQMNNLRVEDMGIYYCTGSYYGMDYWGQGTSVTVS chain 2 DVVMTQTPLSLPVSLGDQASISCRSSQSLVHSNGNTYLRWYLQKPGQSPKVLIYKVSNRFSGVPDRFSGSGSGTDFTLKISRVEAEDLGVYFCSQSTHVPWTFGGGTKLEIK [chain 1 D31P Y32W]: the Kd with fluorescein is no less than 10 µM. Also, the yeast surface expression in series [1] turned out to be 0.762.

Take chain 1 EVKLDETGGGLVQPGRPMKLSCVASGFTFSDYWMNWVRQSPEKGLEWVAQIRNKPYNYETYYSDSVKGRFTISRDDSKSSVYLQMNNLRVEDMGIYYCTGSYLGMIYWGQGTSVTVS chain 2 DVVMTQTPLSLPVSLGDQASISCRSSQSLVHSNGNTYLRWYLQKPGQSPKVLIYKVSNRFSGVPDRFSGSGSGTDFTLKISRVEAEDLGVYFCSQSTHVPWTFGGGTKLEIK [chain 1 Y103L D106I]: the dissociation constant (Kd) in the series with fluorescein is no less than 10 µM. Also, the yeast surface expression in series [1] worked out at 0.764.

Take chain 1 EVKLDETGGGLVQPGRPMKLSCVASGFTFSPYWMFWVRQSPEKGLEWVAQIRNKPYNYETYYSDSVKGRFTISRDDSKSSVYLQMNNLRVEDMGIYYCTGSYYGMDYWGQGTSVTVS chain 2 DVVMTQTPLSLPVSLGDQASISCRSSQSLVHSNGNTYLRWYLQKPGQSPKVLIYKVSNRFSGVPDRFSGSGSGTDFTLKISRVEAEDLGVYFCSQSTHVPWTFGGGTKLEIK [chain 1 D31P N35F]: the dissociation constant (Kd) in the series with fluorescein worked out at 0.0302 µM. For the same variant, in series [1], the yeast surface expression is 0.944.

Consider chain 1 EVKLDETGGGLVQPGRPMKLSCVASGFTFSDYWMNWVRQSPEKGLEWVAQIRNKPYNYETYYSDSVKGRFTISRDDSKSSVYLQMNNLRVEDMGIYYCTGSYDGMDRWGQGTSVTVS chain 2 DVVMTQTPLSLPVSLGDQASISCRSSQSLVHSNGNTYLRWYLQKPGQSPKVLIYKVSNRFSGVPDRFSGSGSGTDFTLKISRVEAEDLGVYFCSQSTHVPWTFGGGTKLEIK [chain 1 Y103D Y107R], for which, in the series with fluorescein, the dissociation constant Kd is no less than 10 µM. Besides, the yeast surface expression in series [1] worked out at 0.955.

As to chain 1 EVKLDETGGGLVQPGRPMKLSCVASGFTFSDYWMNWVRQSPEKGLEWVAQIRNKPYNYETYYSDSVKGRFTISRDDSKSSVYLQMNNLRVEDMGIYYCTGSYTGHDYWGQGTSVTVS chain 2 DVVMTQTPLSLPVSLGDQASISCRSSQSLVHSNGNTYLRWYLQKPGQSPKVLIYKVSNRFSGVPDRFSGSGSGTDFTLKISRVEAEDLGVYFCSQSTHVPWTFGGGTKLEIK [chain 1 Y103T M105H], the dissociation constant (Kd) in the series with fluorescein was no less than 10 µM. The yeast surface expression in series [1] was found to be 0.849.
